Where two headings read alike, the source gives them in different places.

Assay in all cases: cell-based or functional assay
For assay [1], the target named is GLP-1 receptor.
Assay [2] concerns the target GLP-1 receptor. This is another data set of the same source.
In the next assay the target is glucagon receptor.

With GLP-1 (peptide), the cAMP Induction, EC50 (luciferase reporter, HEK293) is 0.04 nM with GLP-1 receptor [1], 0.05 nM with GLP-1 receptor [2] and over 1000 nM in the assay with glucagon receptor.

These data come from patent publication US20120196804A1.
